Results taken from patent US20150329627A1 (Eli Lilly, published 2015).
Numbering of substitutions follows the chain as printed.

How the values were obtained:
[1] = target: T1, human angiopoietin-2 (Ang2) (human, UniProt O15123 19-496); assay: cell-based or functional assay
T1 sequence: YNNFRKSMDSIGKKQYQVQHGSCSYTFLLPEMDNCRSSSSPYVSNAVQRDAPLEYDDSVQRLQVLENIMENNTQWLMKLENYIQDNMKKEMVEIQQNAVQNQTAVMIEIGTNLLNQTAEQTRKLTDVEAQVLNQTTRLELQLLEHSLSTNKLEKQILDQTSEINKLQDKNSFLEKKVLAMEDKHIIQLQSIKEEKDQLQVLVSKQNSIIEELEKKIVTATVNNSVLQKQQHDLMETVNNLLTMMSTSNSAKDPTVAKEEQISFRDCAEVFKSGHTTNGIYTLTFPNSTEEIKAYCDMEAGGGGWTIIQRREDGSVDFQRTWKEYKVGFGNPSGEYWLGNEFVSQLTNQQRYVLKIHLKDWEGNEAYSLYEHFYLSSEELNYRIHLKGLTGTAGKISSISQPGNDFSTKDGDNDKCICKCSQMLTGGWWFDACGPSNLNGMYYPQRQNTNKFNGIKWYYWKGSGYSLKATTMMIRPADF

[2] = target: T1, human angiopoietin-2 (Ang2); assay: Biacore SPR, 37 C, n = 3
[3] = target: T2, cyno Ang2 (cynomolgus, UniProt A0A2K5VNX6 19-496); assay: Biacore SPR, 37 C, n = 3
T2 construct: also called cynomolgus Ang2
T2 sequence: T1 sequence with E258G, I279V, F284L, I291V, G410A, A468G, D477G

[4] = target: T3, mouse Ang2 (mouse, UniProt O35608 19-496, limits assumed); assay: Biacore SPR, 37 C, n = 3
T3 sequence (looked up): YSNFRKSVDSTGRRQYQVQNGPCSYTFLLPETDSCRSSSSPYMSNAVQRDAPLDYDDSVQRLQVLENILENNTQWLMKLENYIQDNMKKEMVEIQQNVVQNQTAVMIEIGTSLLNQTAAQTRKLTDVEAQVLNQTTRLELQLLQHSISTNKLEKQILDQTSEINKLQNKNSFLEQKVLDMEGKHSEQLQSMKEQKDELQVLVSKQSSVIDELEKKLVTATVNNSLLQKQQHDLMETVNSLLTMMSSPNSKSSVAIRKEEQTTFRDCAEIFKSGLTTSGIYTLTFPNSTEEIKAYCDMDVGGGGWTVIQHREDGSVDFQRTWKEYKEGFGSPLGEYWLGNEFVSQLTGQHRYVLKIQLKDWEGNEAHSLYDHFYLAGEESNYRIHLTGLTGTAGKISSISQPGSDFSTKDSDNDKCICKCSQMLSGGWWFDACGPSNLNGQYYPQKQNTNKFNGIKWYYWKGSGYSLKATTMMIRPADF

[5] = target: T4, rabbit Ang2 (rabbit, UniProt G1T9B3 19-496); assay: Biacore SPR, 37 C, n = 3
T4 sequence: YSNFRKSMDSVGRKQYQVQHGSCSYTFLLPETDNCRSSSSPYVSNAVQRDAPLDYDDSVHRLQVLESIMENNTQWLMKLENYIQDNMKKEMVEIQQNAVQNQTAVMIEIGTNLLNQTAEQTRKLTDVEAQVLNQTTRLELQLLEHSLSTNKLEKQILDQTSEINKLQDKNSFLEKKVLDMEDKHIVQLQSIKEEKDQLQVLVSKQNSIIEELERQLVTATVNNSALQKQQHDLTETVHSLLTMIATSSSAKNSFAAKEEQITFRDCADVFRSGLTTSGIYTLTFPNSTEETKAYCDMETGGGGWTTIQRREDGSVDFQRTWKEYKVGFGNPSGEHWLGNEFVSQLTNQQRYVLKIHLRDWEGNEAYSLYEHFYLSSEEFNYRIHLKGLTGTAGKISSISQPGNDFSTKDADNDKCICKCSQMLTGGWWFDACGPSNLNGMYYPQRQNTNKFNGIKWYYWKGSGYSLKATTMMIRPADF

[6] = target: T5, dog Ang2 (dog, UniProt A0A8J8 19-495, limits assumed); assay: Biacore SPR, 37 C, n = 3
T5 sequence (looked up): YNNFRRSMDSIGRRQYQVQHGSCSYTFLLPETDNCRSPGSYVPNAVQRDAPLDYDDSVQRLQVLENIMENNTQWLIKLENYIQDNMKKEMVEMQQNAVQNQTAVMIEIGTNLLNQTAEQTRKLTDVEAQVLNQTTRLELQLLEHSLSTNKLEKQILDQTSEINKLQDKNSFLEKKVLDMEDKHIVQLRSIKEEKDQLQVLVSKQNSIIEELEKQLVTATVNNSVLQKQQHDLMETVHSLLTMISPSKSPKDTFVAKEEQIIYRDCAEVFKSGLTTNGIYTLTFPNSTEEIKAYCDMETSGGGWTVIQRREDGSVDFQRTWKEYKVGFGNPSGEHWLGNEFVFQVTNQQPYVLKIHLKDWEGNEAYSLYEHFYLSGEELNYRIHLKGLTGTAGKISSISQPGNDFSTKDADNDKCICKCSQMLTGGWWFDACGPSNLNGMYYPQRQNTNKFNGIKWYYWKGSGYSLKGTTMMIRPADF

[7] = target: T6, rat Ang2 (rat, UniProt O35462 19-496, limits assumed); assay: Biacore SPR, 37 C, n = 3
T6 sequence (looked up): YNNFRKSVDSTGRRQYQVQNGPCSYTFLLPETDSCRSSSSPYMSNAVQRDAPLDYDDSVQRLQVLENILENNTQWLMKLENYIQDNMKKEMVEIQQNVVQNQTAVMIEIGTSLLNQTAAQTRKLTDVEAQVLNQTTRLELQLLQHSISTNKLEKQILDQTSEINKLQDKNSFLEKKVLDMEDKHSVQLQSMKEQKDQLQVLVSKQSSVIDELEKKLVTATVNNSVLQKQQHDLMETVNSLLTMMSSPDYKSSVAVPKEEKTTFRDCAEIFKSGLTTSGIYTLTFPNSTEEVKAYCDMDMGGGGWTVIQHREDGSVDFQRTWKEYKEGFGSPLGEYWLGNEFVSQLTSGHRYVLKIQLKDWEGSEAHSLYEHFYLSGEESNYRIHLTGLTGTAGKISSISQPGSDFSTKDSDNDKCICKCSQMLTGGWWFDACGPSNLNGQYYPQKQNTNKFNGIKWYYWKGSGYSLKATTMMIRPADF

[8] = target: T1, human angiopoietin-2 (Ang2); assay: KinExA; reference H1H685P-293HEK
[9] = target: T1, human angiopoietin-2 (Ang2); assay: Biacore SPR, 25 C; reference 3.19.3-293HEK
[10] = target: T1, human angiopoietin-2 (Ang2); assay: Biacore SPR, 25 C; reference H1H685P-293HEK
[11] = target: T1, human angiopoietin-2 (Ang2); assay: Biacore SPR, 25 C, antibody captured on Protein A, soluble Ang2 injected
[12] = target: T1, human angiopoietin-2 (Ang2); assay: KinExA 3200, solution equilibrium at 25 C, human Ang2 on sepharose beads
[13] = target: T1, human angiopoietin-2 (Ang2); assay: blocking ELISA: antibody titrated against biotinylated human Ang2 (100 ng/ml), binding to coated human Tie2-Fc read

IC50, neutralization of human Ang2 induced phospho-Tie-2 in CHO-Tie-2 cells [1]: 0.773 nM | Kd [2]: 0.08 nM | koff [2]: 7e-05 s⁻¹ | kon [2]: 1e+06 M⁻¹ s⁻¹ | Kd [3]: 0.107 nM | koff [3]: 0.00029 s⁻¹ | kon [3]: 2.7e+06 M⁻¹ s⁻¹ | Kd [4]: 0.109 nM | koff [4]: 0.00011 s⁻¹ | kon [4]: 1e+06 M⁻¹ s⁻¹ | Kd [5]: 0.21 nM | koff [5]: 0.00015 s⁻¹ | kon [5]: 730000 M⁻¹ s⁻¹ | Kd [6]: 0.14 nM | koff [6]: 0.00011 s⁻¹ | kon [6]: 790000 M⁻¹ s⁻¹ | Kd [7]: 0.18 nM | koff [7]: 0.0002 s⁻¹ | kon [7]: 1.2e+06 M⁻¹ s⁻¹ | fold lower KD than H1H685P-293HEK [8]: ~8 fold | fold lower KD than 3.19.3-293HEK [9]: ~8 fold | fold lower KD than H1H685P-293HEK [10]: ~4 fold | Kd [11]: 0.038 nM | koff [11]: 2.8e-05 s⁻¹ | kon [11]: 747000 M⁻¹ s⁻¹ | Kd [12]: 0.00011 nM | IC50 [13]: 0.027 nM
B1: Antibody A (antibody, human IgG4 S228P, kappa, F234A L235A, V domains shown)
VH: QVQLVQSGAEVKKPGASVKVSCKASGYSFTDYNMVWVRQAPGQGLEWMGYIDPYNGGTGYNQKFEGRVTMTTDTSTSTAYMELRSLRSDDTAVYYCARTRDRYDVWYFDVWGQGTLVTVSS
VL: DIQMTQSPSSVSASVGDRVTITCKASQDVYIAVAWYQQKPGKAPKLLIYWASTRDTGVPSRFSGSGSGTDFTLTISSLQPEDFATYYCHQYSSYPPTFGGGTKVEIKR
